According to the supplement of paper PMC12764529:
± gives the half width of the 95% confidence interval.

Key:
[1] = folding stability dG unfold from chymotrypsin proteolysis; higher = more stable
Method in brief: (§1)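 K50 was inferred by Bayesian fitting of sequencing counts obtained after protease digestion of designed mini-proteins. Unfolding free energy was derived by comparison with a sequence-predicted unfolded-state K50 and a shared folded-state K50, for each protease or both combined. The mini-proteins were under 80 residues, had no cysteine, were carried in a PA-tagged cDNA display construct, and were kept only if AlphaFold2 dimer inter-PAE exceeded 15.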

[2] = folding stability dG unfold (combined trypsin and chymotrypsin); higher = more stable
Method in brief: as §1

[3] = folding stability dG unfold from trypsin proteolysis; higher = more stable
Method in brief: as §1

Sequence | folding stability dG unfold [1] [kcal/mol] | folding stability dG unfold [2] [kcal/mol] | folding stability dG unfold [3] [kcal/mol]
SAGMEKKTFTFPTRTVLVVRGPDGTVLVVVDDPDGDPEVLTPDGTPVPYVDLPNGQRLYRFPAALFEKVSAG [r5_457_TrMRF] | 3.182 ± 0.023 | 2.88 ± 0.063 | 2.1 ± 0.035
SAGGSAGGSAGGGYTLVTVTLRSPTPTEEVVEEKYPPSVPLEEVKAKYEPLGWEVSFDLLSAGGSAGGSAGG [r7_226_JUSTAS] | 0.422 ± 0.13 | 0.832 ± 0.061 | 0.936 ± 0.025
SAGGSAGGSAKEILIVMTPEEAEELKKELLEKLKELAKKLKIKEIKIKVYLVKYDKNGKKVSAGGSAGGSAG [r3_89_TrROS_Hall] | 2.66 ± 0.091 | 2.26 ± 0.28 | 1.9 ± 0.12
SAGGSAGGSPPVKYRITIEMKDPNGKEHTHTIEIPGMNPDDAKEFLEDIPIPPGIKDVEIEPYSAGGSAGGS [r12_886_TrROS] | -0.55 ± 0.68 | -0.148 ± 0.24 | -0.0813 ± 0.068
SAGGSAGGSAGTLTFTFDGVTVEVRLVDGYLVIRVTTEVEVNGKKYKVTLELVIKLPEGLSAGGSAGGSAGG [r11_879_TrROS_Hall] | 5.4 ± 0.28 | 5.49 ± 0.28 | 4.5 ± 0.41
SAGGSAGGSNGKKIEIDIFWPRPMAETIVKELWKGSNIKPIKIKVIPMPEDDPKYKEFMDKLKSAGGSAGGS [r12_649_TrROS] | 0.188 ± 0.12 | 0.247 ± 0.12 | 0.109 ± 0.079
SAGGSAGGSAGKKKIVFLVEDPEEALKTLTFPKDANIEIEKIEVKPLPNGLYEVVIYLKNSAGGSAGGSAGG [r11_150_TrMRF] | 4.59 ± 0.1 | 4.29 ± 0.24 | 2.76 ± 0.081
SAMKTETITVPGLKIEVTENKDGKKTIKITAATPEQAEEWLKKNPELRKLIEELEKAGYKVEITVLPPPSAG [r14_873_TrROS_Hall] | 2.83 ± 0.051 | 3.01 ± 0.049 | 3.4 ± 0.17
SALPYEVEKTSETFLPEEGLTVTEYKITLPDGSELYRRETFDPKTGVRTVTVYDPNGKKLETRTFTVPPSAG [r14_759_JUSTAS] | 2.49 ± 0.048 | 2.4 ± 0.046 | 2.19 ± 0.038
SAGGSAGGSAGPPDFQIYVDIETQRNPGNGRYYVTMKIYIGNKPIVEITIPAGEPLKIKFSAGGSAGGSAGG [r17_281_TrROS] | 3.9 ± 0.045 | 3.4 ± 0.14 | 2.66 ± 0.12
SAGGSAGGMKPISRSTYTNPLNGTTITVTKYPETGEYVITLPDGTTYTVPKSVPITSVEEAIKNSAGGSAGG [r6_72_JUSTAS] | 1.32 ± 0.15 | 0.977 ± 0.096 | 0.32 ± 0.066
SADKILVRVVFNLGGPPVELTLEADSPEELVEATIAVIKPLFPDADIREVKLFVYNPNTDEVEEFTLTASAG [r14_54_TrMRF] | 3.341 ± 0.021 | 3.06 ± 0.059 | 2.44 ± 0.043
SAGGMTLLKVRIYIPSEPKPIEVELFTDGDPEKAEEAVRELVEELGYPDAKVEVELLEVDPSDPRFLGSAGG [r13_682_TrMRF] | 3.984 ± 0.024 | 3.57 ± 0.051 | 2.38 ± 0.041
SAGGSAGGSAGMIKKVKISRTSDGTVTRTTEYLETDKPGVPKVVTTEVETVTLAPSEPLFSAGGSAGGSAGG [r11_517_JUSTAS] | 0.911 ± 0.039 | 0.507 ± 0.084 | -1.11 ± 0.51
SAGGMPLRFRIEVYKTETYYDPSTGKEVTKVEPLPELEIEAPPNTPLEAILAALDLPEDYYISRIGVESAGG [r13_716_TrMRF] | 2.55 ± 0.026 | 2.43 ± 0.049 | 2.06 ± 0.065
SSLTVRLELEVTFEDGLRVRVEVEAELREVDGKLELRVRVRVEVRPLPPPPPPPPPPRLSDEQLEELRKRSA [r9_965_TrROS_Hall] | 2.34 ± 0.092 | 1.9 ± 0.19 | 0.786 ± 0.19
SAGGSAGGSAPRPIEIMFPWDSPEDAHEEAEEIARTFAQEDNIKVKVEYYPREGWVKVKIRVSAGGSAGGSA [r18_368_TrROS] | 1.57 ± 0.34 | 1.38 ± 0.21 | 1.21 ± 0.085
